Results on 1 molecule are retold here after US20030166014A1 (CURATORS OF THE UNIVERSITY OF MISSOURI, published 2003).

Assay [1] concerns the target T1, Maackia amurensis lectin (MAL) (Maackia amurensis).
T1 construct: Used at 10 µg/ml in the lectin ELISA
Briefly: lectin ELISA; slope of absorbance at 405 nm against ng Hp. Background: ELISA stands for enzyme-linked immunosorbent assay.

Assay [2] deals with T2, Lotus tetragonolobus lectin (LTL) (Lotus tetragonolobus, UniProt P19664 1-240).
T2 construct: Used at 2 µg/ml in the lectin ELISA
T2 sequence (looked up): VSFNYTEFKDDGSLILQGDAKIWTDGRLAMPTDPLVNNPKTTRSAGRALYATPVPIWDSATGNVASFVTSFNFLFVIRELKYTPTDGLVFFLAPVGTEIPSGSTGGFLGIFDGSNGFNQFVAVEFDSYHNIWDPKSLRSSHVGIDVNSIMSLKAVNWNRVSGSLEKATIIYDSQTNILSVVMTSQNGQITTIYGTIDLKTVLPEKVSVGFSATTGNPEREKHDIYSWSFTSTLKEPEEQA
Described as above.

T1 sequence (P0DKL3 30-278): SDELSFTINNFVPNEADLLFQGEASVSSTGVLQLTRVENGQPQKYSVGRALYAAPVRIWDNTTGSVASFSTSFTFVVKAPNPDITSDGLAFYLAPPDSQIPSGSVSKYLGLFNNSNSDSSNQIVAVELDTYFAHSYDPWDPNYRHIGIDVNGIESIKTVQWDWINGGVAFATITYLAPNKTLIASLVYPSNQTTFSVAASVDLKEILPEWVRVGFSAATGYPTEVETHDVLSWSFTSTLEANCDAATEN

B1: endometriosis-associated peritoneal endometriotic haptoglobin (pHp) (other, human)
chain 1: VDSGNDVTDIADDGCPKPPEIAHGYVEHSVRYQCKNYYKLRTEGDGVYTLNDKKQWINKAVGDKLPECEADDGCPKPPEIAHGYVEHSVRYQCKNYYKLRTEGDGVYTLNNEKQWINKAVGDKLPECEAVCGKPKNPANPVQ
chain 2: ILGGHLDAKGSFPWQAKMVSHHNLTTGATLINEQWLLTTAKNLFLNHSENATAKDIAPTLTLYVGKKQLVEIEKVVLHPNYSQVDIGLIKLKQKVSVNERVMPICLPSKDYAEVGRVGYVSGWGRNANFKFTDHLKYVMLPVADQDQCIRHYEGSTVPEKKTPKSPVGVQPILNEHTFCAGMSKYQEDTCYGDAGSAFAVHDLEEDTWYATGILSFDKSCAVAEYGVYVKVTSIQDWVQKTIAEN
modifications: N-glycosylated; 3 kDa less carbohydrate than sHp beta-chain; more alpha(2-3) sialic acid and fucose than sHp
notes: domain: α-subunit;domain: β-subunit; also called peritoneal endometriotic Hp
B1: the “fold binding relative to sHp” value in assay [1] was 10 times (vs sHp); in assay [2], 11 times (vs sHp).
